Measured values taken from paper doi:10.1101/2023.07.04.547698 (bioRxiv, 2023).

Columns and labels:
[1] = biological target: T1, human tau fibrils (HT40, 2N4R) (Homo sapiens, UniProt P10636-8); test: flow cytometry on fibril-coated beads
[2] = biological target: T1, human tau fibrils (HT40, 2N4R); test: flow cytometry on fibril-coated beads, competition with monomer
[3] = biological target: human α-synuclein fibrils (Homo sapiens (Human)., UniProt P37840); test: as above
human 0N3R tau fibrils = human 0N3R tau fibrils (Homo sapiens, UniProt P10636-2); test: far-Western, overlay or dot blot

Binder | binding result [2] | binding result [3] | also measured
ATA1 (scFv, V domains shown) VH: QVQLQQSGPGLLKPSETLSLTCVISGDSVSSNSATWNWIRQSPSRGLEWLGRTYFRSKWYNDYAVSVKSRITINPDTSKNQFSLQLNSATPEDTAVYYCARQMDEGVGFDFWGQGTLVTVSS VL: EIVLTQSPATLSLSPGERATLSCRASQSVSSYLAWYQQKPGQAPRLLIYDASNRATGIPARFSGSGSGTDFTLTISSLEPEDFAVYYCQQRSNWPPTFGQGTRLEIK | – | – | EC50 [1]: 6.3 nM
ATA1.458.3 (scFv, V domains shown) VH: QVQLQQSGPGLLKPSETLSLTCVISGDSVSTNDVTWNWIRQSPSRGLEWLGRTYFRRKWYNDYARSVKSRITINPDTSKNQFSLQLNSATPEDTAVYYCARQMDEGVGFDFWGQGTLVTVSS VL: EIVLTQSPATLSLSPGERATLSCRASQSVSSYLAWYQQKPGQAPRLLIYDASNRATGIPARFSGSGSGTDFTLTISSLEPEDFAVYYCQQRHNWPPTFGQGTRLEIK | binds | – | –
ATA1.458.5 (scFv, V domains shown) VH: QVQLQQSGPGLLKPSETLSLTCVISGDSVSSNFVTWNWIRQSPSRGLEWLGRTYFRRKWYNDYAVSVKSRITINPDTSKNQFSLQLNSATPEDTAVYYCARQMDEGVGFDFWGQGTLVTVSS VL: EIVLTQSPATLSLSPGERATLSCRASQSVSSYLAWYQQKPGQAPRLLIYDASNRATGIPARFSGSGSGTDFTLTISSLEPEDFAVYYCQQRHSWPPTFGQGTRLEIK | binds | – | –
H2.3 (antibody, V domains shown) VH: QVQLQQSGPGLVKPSQTLSLTCAISGDSVSSHSASWNWIRQSPSRGLEWLGRTYYRGKWKTDYAVSVKSRIIINPDTSKNQFSLQLDSVTPEDTAVYFCTRATRGASDYWGQGTLVTVSS VL: not shown | – | binds | –
H2.4 (antibody, V domains shown) VH: QVQLQQSGPGLVKPSQTLSLTCAISGDSVSSHSASWNWIRQSPSRGLEWLGRTYYRSKWHNDYAASVKGRIIINPDTSKNQFSLQLDSVTPEDTAVYFCTRATRGASDYWGQGTLVTVSS VL: not shown | – | binds | –
ATA1.459.3 (scFv, V domains shown) VH: QVQLQQSGPGLLKPSETLSLTCVISGDSVSSNSVTWNWIRQSPSRGLEWLGRTYFRRRWYNDYAVSVKSRITINPDTSKNQFSLQLNSATPEDTAVYYCARQMDKGVGFDFWGQGTLVTVSS VL: EIVLTQSPATLSLSPGERATLSCRASQSVSSYLAWYQQKPGQAPRLLIYDASNRATGIPARFSGSGSGTDFTLTISSLEPEDFAVYYCQQRHNWPPTFGQGTRLEIK | – | – | binding result (human 0N3R tau fibrils): binds
